Measurements published in patent publication US20230212587A1, “Mutant Hydroxyphenylpyruvate Dioxygenase Polypeptide, Encoding Gene Thereof and Use Therefor” (Beijing Dabeinong Biotechnology Co., Ltd., priority 2019, published 2023).

B1: CaHPPDm-F372G: Cicer arietinum HPPD mutant F372G, SEQ ID NO: 315 (protein)
chain: MGTIETQTGFKLVGFNNFVRTNPKSDRFKVKRFHHVEFWCPDATNTARRFSWGLGMPIVAKSDLSTGNQTHASYLLRSGDLNFLFTAAYSPSISLSAPHPTASIPSFSAPTSFAFSASHGLGVRAVAIEVDDAEFAYTTSVNHGAIPSSPPVVLDNRVKLAEVQLYGDVVLRYVSYNDPIETSNPNPNHWFLPGFEPVEETSSNQSIDFGIQRLDHAVGNVPELSSALNYVKQFTGFHEFAEFTAEDVGTSESGLNSTVLANNEETVLLPMNEPVYGTKRKSQIQTYLEHNEGAGLQHLALMSNDIFKTLREMRKRSGIGGFEFMPSPPPTYYSNLKKRVGDVLNDEQIKECEELGILVDKDDQGTLLQIGTKPVGDRPTIFIEIIQRVGCMLKDDEGKEYQKGGCGGFGKGNFSELFKSIEEYEKTLEIKRTA
modifications: CaHPPDm-F372G Amino Acid Sequence
B2: GmHPPDm-F372G: Glycine max HPPD mutant F372G, SEQ ID NO: 313 (protein)
chain: MPMYTPSLSAPSSNHIQPSVTLPLYITTTKLNLKQQHHTTPMPIPMCNEIQAQAQAQAQPGFKLVGFKNFVRTNPKSDRFQVNRFHHIEFWCTDATNASRRFSWGLGMPIVAKSDLSTGNQIHASYLLRSGDLSFLFSAPYSPSLSAGSSAASSASIPSFDAATCLAFAAKHGFGVRAIALEVADAEAAFSASVAKGAEPASPPVLVDDRTGFAEVRLYGDVVLRYVSYKDAAPQAPHADPSRWFLPGFEAAASSSSFPELDYGIRRLDHAVGNVPELAPAVRYLKGFSGFHEFAEFTAEDVGTSESGLNSVVLANNSETVLLPLNEPVYGTKRKSQIETYLEHNEGAGVQHLALVTHDIFTTLREMRKRSFLGGFEFMPSPPPTYYANLHNRAADVLTVDQIKQCEELGILVDRDDQGTLLQIGTKPVGDRPTIFIEIIQRIGCMVEDEEGKVYQKGACGGFGKGNFSELFKSIEEYEKTLEAKRTA
modifications: GmHPPDm-F372G Amino Acid Sequence
B3: BvHPPDm-F372G: Beta vulgaris HPPD mutant F372G, SEQ ID NO: 323 (protein)
chain: MGTLSPQPQTSPSQFKLVGYSNFIRVNPLSDLFPVKRFHHVEFWCGDATNVSRRFSWGLGMPIVAKSDLSTGNSVHASYLLRSGELHFLFTSPYSPSLSSPSSATIPTFSFSLFTSFLTSHGLAVRAVAVEVQDAEAAFHISVSNGASPVSPPIRLHDGVVLSEVHLYGDVVLRYVSTSSVVDGIFLPGFEEMLGESSFQELDFGLRRLDHAVGNVPELAPAIEYVKKFTGFHEFAEFTTEDVGTSESGLNSAVVANNDETVLFPMNEPVYGTKRKSQIQTYLEHNEGAGVQHLALMSEDIFWTLREMRKRSGLGGFEFMPSPPPTYYRNLRNRAADVLSEEQMKECEELGILVDKDDQGTLLQIGTKPIGDRPTMFIEIIQRIGCMMKDEEGKVYQKGGCGGFGKGNFSELFKSIEEYEKTLERKPIADTNAT
modifications: BvHPPDm-F372G Amino Acid Sequence
B4: BnHPPDm-F372G: Brassica napus HPPD mutant F372G, SEQ ID NO: 317 (protein)
chain: MGHENAAVCETQQHDDAASPGFKLVGFSKFVRKNPKSDKFKVKRFHHIEFWCGDATNVSRRFSWGLGMRFSAKSDLSTGNMVHASYLLTSGDLRFLFTAPYSPSLSAGEAQPSATASIPSFDHASCRSFFSSHGLGVRAVAIEVEDAESAFSISVANGAVPSSPPNVLNGAVTIAEVKLYGDVVLRYVSYYNGTVSFLPGFESVDDTSSFPLDYGIRRLDHAVGNVPELGPALTYLAGFTGFHQFAEFTADDVGTAESGLNSAVLANNDEMVLLPINEPVHGTKRKSQIQTFLEHNEGAGLQHLALMSEDIFRTLREMRKRSGVGGFDFMPSPPPTYYKNLKKRVGDVLSEEQIEECEELGILVDRDDQGTLLQIGTKPLGDRPTIFIEIIQRVGCMKRDEEGKVYQSGGCGGFGKGNFSELFKSIEEYEKTLEAKQLVG
modifications: BnHPPDm-F372G Amino Acid Sequence
B5: AtHPPDm-F372G: Arabidopsis thaliana HPPD mutant F372G, SEQ ID NO: 297 (protein)
chain: MGHQNAAVSENQNHDDGAASSPGFKLVGFSKFVRKNPKSDKFKVKRFHHIEFWCGDATNVARRFSWGLGMRFSAKSDLSTGNMVHASYLLTSGDLRFLFTAPYSPSLSAGEIKPTTTASIPSFDHGSCRSFFSSHGLGVRAVAIEVEDAESAFSISVANGAIPSSPPIVLNEAVTIAEVKLYGDVVLRYVSYKAEDTEKSEFLPGFERVEDASSFPLDYGIRRLDHAVGNVPELGPALTYVAGFTGFHQFAEFTADDVGTAESGLNSAVLASNDEMVLLPINEPVHGTKRKSQIQTYLEHNEGAGLQHLALMSEDIFRTLREMRKRSSIGGFDFMPSPPPTYYQNLKKRVGDVLSDDQIKECEELGILVDRDDQGTLLQIGTKPLGDRPTIFIEIIQRVGCMMKDEEGKAYQSGGCGGFGKGNFSELFKSIEEYEKTLEAKQLVG
modifications: AtHPPDm-F372G Amino Acid Sequence
B6: NtHPPDm-F372G: Nicotiana tabacum HPPD mutant F372G, SEQ ID NO: 325 (protein)
chain: MGKLETVTTTSAAAADDSSELTTNFKLVGFKNFIRTNPRSDFFSVKSFHHIEFWCGDATNTARRFSWSLGMPIAAKSDLSTGNSVHASYLLRPVSGSLQFLFTAPYSPSISTPSSAAIPSFSTSTHRSFTTTHGLGVRAVALEVENAYTAFSASVSRGAKPMFEPVTIDEQVAMAEVHLYGDVVLRFVSYLKDADNLVFLPGFEAMDETASYKELDYGIRRLDHAVGNVPELGPVVDYIKRFTGFHEFAEFTAEDVGTAESGLNSMVLANNDETVLLPLNEPVYGTKRKSQIQTYLEHNEGAGVQHLALVTEDIFKTLTEMRKRSGVGGFEFMPSPPPTYYKNLKNRAGDVLSDEQILACEELGILVDRDDQGTLLQIGTKPVGDRPTIFIEIIQRIGCMLKDGKGQVYQKGGCGGFGKGNFSELFRSIEEYEKTLEAKQANQVAAA
modifications: NtHPPDm-F372G Amino Acid Sequence
B7: HaHPPDm-F372G: Helianthus annuus HPPD mutant F372G, SEQ ID NO: 319 (protein)
chain: MGTEATVAAVVAGDESDHPTSAFKLVGFKNFIRTNPMSDKFTVKNFHHIEFWCSDATNTARRFSWGLGMPIIFKSDLSTGNSTHASYLLRSGHLNFLFTAPYSPSISPTTTTASIPTFSHSASRHFTATHGLAVRAIAVEVEDAETAFAVSVANGAKPSSPPVTLGHNDVVLSEVKLYGDVVLRYVSYKNNTNNNNNNDNDNYIFLPGFEAMDKTSSFQELDYGIRRLDHAVGNVPELAPAVDYVKSFTGFHEFAEFTAEDVGTSESGLNSVVLACNSEMVLIPMNEPVYGTKRKSQIQTYLEHNEGAGVQHLALASEDIFRTLREMRKRSGVGGFEFMPSPPPTYYRNLKSRAGDVLSDEQIKECEELGILVDRDDQGTLLQIGTKPVGDRPTIFIEIIQRVGCMVKDDEGKVQQKAGCGGFGKGNFSELFKSIEEYEKTLEARSTTAA
modifications: HaHPPDm-F372G Amino Acid Sequence
B8: OsHPPDm-F372G: Oryza sativa HPPD mutant F372G, SEQ ID NO: 311 (protein)
chain: MPPTPTPTATTGAVSAAAAAGENAGFRLVGHRRFVRANPRSDRFQALAFHHVELWCADAASAAGRFAFALGAPLAARSDLSTGNSAHASLLLRSASVAFLFTAPYGGDHGVGADAATTASIPSFSPGAARRFAADHGLAVHAVALRVADAADAFRASVAAGARPAFQPADLGGGFGLAEVELYGDVVLRFVSHPDGADAPFLPGFEGVSNPGAVDYGLRRFDHVVGNVPELAPVAAYISGFTGFHEFAEFTAEDVGTAESGLNSVVLANNAETVLLPLNEPVHGTKRRSQIQTYLDHHGGPGVQHIALASDDVLGTLREMRARSAMGGFEFLAPPPPNYYDGVRRRAGDVLSEEQINECQELGVLVDRDDQGVLLQIGTKPVGDRPTFFLEMIQRIGCMEKDESGQEYQKGGCGGFGKGNFSELFKSIEEYEKSLEAKQAPTVQGS
modifications: OsHPPDm-F372G Amino Acid Sequence
B9: CsHPPDm-F372G: Cucumis sativus HPPD mutant F372G, SEQ ID NO: 327 (protein)
chain: MGKEADFPRAPSEATDGGATASQSEFELQGFDNFIRTNPKSDRFKVKRFHHIEFWCTDATNVARRFSWGLGMQIVAKSDLSTGNMTHASYLLRSGHLCFLFTAPYSPSIAAAQNLTPASTASIPSFDHSVCRSFSGTHGFGARAIALEVEDAEIAFRTSVAHGAKPSCPPIVLENRAVLSEVHLYGDVVLRYISYKNPVSGDNGENKPDEWFLPKFEAMEETASFPLDFGIRRLDHAVGNVPELGPAVSYLKGFTGFHEFAEFTAEDVGTSESGLNSMVLANNEEMVLLPINEPVFGTKRKSQIQTYLEHNEGAGVQHLALMSEDIFRTLREMRKRSSVGGFEFMPSPPPTYYKNLKSRAGDVLTDEQIKECEELGILVDKDDQGTLLQIGTKPVGDRPTIFIEIIQRLGCMMKDEEGKAFQKGGCGGFGKGNFSELFKSIEEYEKTLEAKRVSE
modifications: CsHPPDm-F372G Amino Acid Sequence
B10: MsHPPDm-F372G: Medicago sativa HPPD mutant F372G, SEQ ID NO: 321 (protein)
chain: MAIETETQTQTGFKLVGFKNFVRANPKSDRFKVKRFHHVEFWCTDATNTARRFSHGLGMPIVAKSDLSTGNQTHASYLLRSGDLNFLFSAAYSPSISLSSPSSTAAIPTFSASNCFSFSASHGLAVRAVAVEVEDAELAFTTSVNNGAIPSSPPVILENHVKLAEVRLYGDVVLRYVSYNDPNPNQNPNLLFLPGFERVSDESSNSSLDFGIRRLDHAVGNVPELSSAVKYVKDFTGFHEFAEFTAEDVGTSESGLNSVVLANNEETVLLPMNEPVYGTKRKSQIETYLEHNEGAGLQHLALKSEDIFRTLREMRKRSGVGGFEFMPSPPVTYYRNLKNRVGDVLSDEQIKECEELGILVDRDDQGTLLQIGTKPIGDRPTIFIEIIQRVGCMLKDEEGKEYQKGGCGGFGKGNFSELFKSIEEYEKTLETRRTA
modifications: MsHPPDm-F372G Amino Acid Sequence

tested on: Arabidopsis thaliana T1 plants; assay: Topramezone tolerance of transgenic Arabidopsis thaliana T1 plants (pesticide damage grade by bleached leaf area, score, resistance evaluation); type: in vivo; details: topramezone 25 g ai/ha (1x); HPPD F372G mutants, Table 6
Method in brief: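 Eighteen days after sowing, wild-type and HPPD-transgenic T1 Arabidopsis receive a topramezone spray at 1×, 2× or 4× field rate (25–100 g ai/ha) or water. Seven days later each plant is graded by its proportion of bleached leaf area.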

**Q.** B1 was tested. Which Resistance evaluation did it give?
**A.** Its Resistance evaluation is “Poorly resistant”.

**Q.** How did the Resistance evaluation turn out when B2 was run?
**A.** Its Resistance evaluation is “Poorly resistant”.

**Q.** B3 was tested. Which Resistance evaluation did it give?
**A.** Its Resistance evaluation is “Moderately resistant”.

**Q.** Which Resistance evaluation does the source give for B4 here?
**A.** The Resistance evaluation was “Poorly resistant”.

**Q.** How did the Resistance evaluation turn out when B5 was run?
**A.** The Resistance evaluation was “Poorly resistant”.

**Q.** Which Resistance evaluation does the source give for B6 here?
**A.** Its Resistance evaluation is “Poorly resistant”.

**Q.** Which Resistance evaluation does the source give for B7 here?
**A.** Its Resistance evaluation is “Poorly resistant”.

**Q.** B8 was tested. Which Resistance evaluation did it give?
**A.** The Resistance evaluation was “Moderately resistant”.

**Q.** With B9 as the molecule, how does the Resistance evaluation read?
**A.** The Resistance evaluation was “Poorly resistant”.

**Q.** B10 was tested. Which Resistance evaluation did it give?
**A.** Its Resistance evaluation is “Moderately resistant”.

same assay, conditions: topramezone 100 g ai/ha (4x); HPPD F372G mutants, Table 6

**Q.** B1 was tested. Which Resistance evaluation did it give?
**A.** The Resistance evaluation was “Non-resistant”.

**Q.** With B2 as the molecule, how does the Resistance evaluation read?
**A.** The Resistance evaluation was “Non-resistant”.

**Q.** How did the Resistance evaluation turn out when B3 was run?
**A.** Its Resistance evaluation is “Non-resistant”.

**Q.** Which Resistance evaluation does the source give for B4 here?
**A.** The Resistance evaluation was “Non-resistant”.

**Q.** B5 was tested. Which Resistance evaluation did it give?
**A.** The Resistance evaluation was “Non-resistant”.

**Q.** How did the Resistance evaluation turn out when B6 was run?
**A.** Its Resistance evaluation is “Non-resistant”.

**Q.** Which Resistance evaluation does the source give for B7 here?
**A.** The Resistance evaluation was “Non-resistant”.

**Q.** Which Resistance evaluation does the source give for B8 here?
**A.** Its Resistance evaluation is “Non-resistant”.

**Q.** How did the Resistance evaluation turn out when B9 was run?
**A.** The Resistance evaluation was “Non-resistant”.

**Q.** Which Resistance evaluation does the source give for B10 here?
**A.** The Resistance evaluation was “Non-resistant”.
